Measured values as given in US20240018189A1 (PROTAGONIST THERAPEUTICS, published 2024).
Starred links: 1 amine or outer side, 2 acyl side, 3 side chain; linkers in the order of their positions; H or OH if unused. Positions of bridges follow the written chain, without caps; N, C: chain ends. Non-standard residues stand in square brackets, D forms with d. Groups on a side chain read outwards from the residue. *: point of attachment. PEG12 = NCCOCCOCCOCCOCCOCCOCCOCCOCCOCCOCCOCCOCCC(=O)O; Phe(4-COOH) = N[C@@H](Cc1ccc(C(=O)O)cc1)C(=O)O; Phe(4-tBu) = CC(C)(C)c1ccc(C[C@H](N)C(=O)O)cc1; Phe(4-CN) = N#Cc1ccc(C[C@H](N)C(=O)O)cc1; Dip = N[C@H](C(=O)O)C(c1ccccc1)c1ccccc1; γGlu = O=C(O)[C@H](CCC(=O)[*:2])N[*:1]; 2Nal = N[C@@H](Cc1ccc2ccccc2c1)C(=O)O; AEF = NCCOc1ccc(C[C@H](N)C(=O)O)cc1; Palmitoyl = CCCCCCCCCCCCCCCC(=O)*; αMeF = C[C@](N)(Cc1ccccc1)C(=O)O; β3hF = N[C@H](CC(=O)O)Cc1ccccc1; Isovaleryl = CC(C)CC(=O)*; αMeC = C[C@](N)(CS)C(=O)O; Npc = nipecotic acid; Ahx = NCCCCCC(=O)O

B1: Ref. Cmpd. 1 (peptide)
peptide: Isovaleryl-DTHFPCIKFKPRSKGCK-NH2
modifications: disulfide 6-16 (inferred); not fully specified (residue 10); also: K10: Lys[PEG11-Palm] (Lys[2PEG11-Palm]
B2: Compd. ID 10 (peptide)
peptide: DTHXPCIKXKKC
modifications: not fully specified; N-term isovaleric acid; 4 Dpa; 8 Lys[1Peg2-1Peg2-Ahx-C18_Diacid]; 9 bhPhe; 11 (D)Lys; C-term NH2
B3: Seq. No. 349 (peptide)
peptide: DTHXPCIKXKKC
modifications: N-term isovaleric acid; 4 Dpa; 8 (D)Lys; 9 bhPhe; 10 Lys(PEG12_Palm); 11 (D)Lys; C-term NH2
B4: Seq. No. 350 (peptide)
peptide: DTHXXCIKFKKC
modifications: N-term isovaleric acid; 4 Dpa; 5 bhPro; 8 (D)Lys; 10 Lys(PEG12_Palm); 11 (D)Lys; C-term NH2
B5: Compd. ID 11 (peptide)
peptide: DTHXPCIKXKC
modifications: not fully specified; N-term isovaleric acid; 4 Dpa; 8 Lys[1Peg2-1Peg2-Ahx-C18_Diacid]; 9 bhPhe; 10 (D)Lys; C-term NH2
B6: RI-Mini Hepcidin (peptide)
peptide: FICIPFHTD
modifications: all residues D-amino acids (DPhe-DIle-DCys-DIle-DPro-DPhe-DHis-DThr-DAsp); Hy- at the N-terminus; C-term NH2

Target: T1, human ferroportin (SLC40A1) fused in frame with GFP (human) (UniProt Q9NP59)
T1 sequence (looked up): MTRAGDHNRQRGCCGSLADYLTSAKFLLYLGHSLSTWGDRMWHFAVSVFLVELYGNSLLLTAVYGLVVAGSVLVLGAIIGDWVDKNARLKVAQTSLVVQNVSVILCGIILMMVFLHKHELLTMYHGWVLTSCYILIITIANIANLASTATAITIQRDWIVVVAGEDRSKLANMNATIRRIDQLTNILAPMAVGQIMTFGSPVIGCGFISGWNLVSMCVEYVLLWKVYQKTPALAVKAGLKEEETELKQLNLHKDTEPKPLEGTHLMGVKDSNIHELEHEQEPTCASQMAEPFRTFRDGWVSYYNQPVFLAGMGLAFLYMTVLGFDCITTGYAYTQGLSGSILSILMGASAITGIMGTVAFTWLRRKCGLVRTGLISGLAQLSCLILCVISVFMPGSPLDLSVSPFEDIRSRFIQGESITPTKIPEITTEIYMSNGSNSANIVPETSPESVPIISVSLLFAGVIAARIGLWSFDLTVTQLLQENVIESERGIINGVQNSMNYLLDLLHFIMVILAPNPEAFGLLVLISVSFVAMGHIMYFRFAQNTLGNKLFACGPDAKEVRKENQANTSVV
Assay: cell-based or functional assay

Binder	FPN EC50	IC50: FPN internalisation	further results
B1	0.03 µM	–	Potency EC50: 0.03 µM
B2	0.00305 µM	–	–
Isovaleryl-DTH[Dip][Npc]CI[dK][Phe(4-CN)]K([PEG12-Palmitoyl])KC-NH2 (disulfide 6-12 (inferred)) [Seq. No. 347]	–	0.023 µM	–
Isovaleryl-DTH[Dip][Npc]CI[dK][αMeF]K([PEG12-Palmitoyl])KC-NH2 (disulfide 6-12 (inferred)) [Seq. No. 348]	–	0.0021 µM	–
B3	–	0.0112 µM	–
B4	–	0.0008 µM	–
Isovaleryl-DTHF[Npc]CI[dK]FK([PEG12-Palmitoyl])[dK]C-NH2 (disulfide 6-12 (inferred)) [Seq. No. 351]	–	0.0132 µM	–
Isovaleryl-DTH[Dip][Npc]CI[dK]FK([PEG12-Palmitoyl])[dK]C-NH2 (disulfide 6-12 (inferred)) [Seq. No. 352]	–	0.00648 µM	–
Isovaleryl-DTHFP[αMeC]I[dK]FK([PEG12-Palmitoyl])KC-NH2 (disulfide 6-12 (inferred)) [Seq. No. 353]	–	0.0215 µM	–
Isovaleryl-DTHFP[αMeC]I[dK]FK([PEG12-Palmitoyl])K[αMeC]-NH2 (disulfide 6-12 (inferred)) [Seq. No. 354]	–	0.01 µM	–
Isovaleryl-DTHFPCI[dK]FK([PEG12-Palmitoyl])K[αMeC]-NH2 (disulfide 6-12 (inferred)) [Seq. No. 355]	–	0.00755 µM	–
Isovaleryl-DTH[Dip][Npc]CI[dK][Phe(4-COOH)]K([PEG12-Palmitoyl])KC-NH2 (disulfide 6-12 (inferred)) [Seq. No. 356]	–	0.0001 µM	–
B5	0.0127 µM	–	–
Isovaleryl-DTH[Dip][Npc]CI[dK][2Nal]K([PEG12-Palmitoyl])KC-NH2 (disulfide 6-12 (inferred)) [Seq. No. 357]	–	0.0102 µM	–
Isovaleryl-DTH[Dip][Npc]CI[dK][AEF]K([PEG12-Palmitoyl])KC-NH2 (disulfide 6-12 (inferred)) [Seq. No. 358]	–	> 3 µM	–
Isovaleryl-DTH[Dip][Npc]CI[dK][Phe(4-tBu)]K([PEG12-Palmitoyl])KC-NH2 (disulfide 6-12 (inferred)) [Seq. No. 359]	–	0.00857 µM	–
Isovaleryl-DTH[Dip][Npc]CI[dK]FK([PEG12-Palmitoyl])KC-NH2 (disulfide 6-12 (inferred)) [Seq. No. 360]	–	0.00964 µM	–
B6	–	–	Potency EC50 (nM): > 10000 nM
Isovaleryl-DTH[Dip][Npc]CI[dK][β3hF]K([Ahx-Palmitoyl])C[dK]-NH2 (disulfide 6-11 (inferred)) [Compd. ID 12]	0.0115 µM	–	–
Isovaleryl-DTH[Dip][Npc]CI[dK][β3hF]K([γGlu-Palmitoyl])C[dK]-NH2 (disulfide 6-11 (inferred)) [Compd. ID 13]	0.0161 µM	–	–
Isovaleryl-DTH[Dip][Npc]CI[dK][β3hF]KC[dK]-NH2 (disulfide 6-11 (inferred); not fully specified (residue 10)) [Compd. ID 15]	> 3 µM	–	–
DTHXPCIKXKKC (N-term isovaleric acid; 4 Dpa; 8 (D)Lys; 9 bhPhe; 10 Lys[Palm]; C-term NH2) [Compd. ID 16]	0.00585 µM	–	–
DTHXPCIKXKKC (N-term isovaleric acid; 4 Dpa; 8 (D)Lys; 9 bhPhe; 10 Lys(Ahx-Palm); C-term NH2) [Compd. ID 17]	0.00829 µM	–	–
